In publication PMC6150820 (ACS chemical biology, 2018):

Assays:
[1] = biological target: T1, E. faecalis Fsr QS circuit (gelE promoter) (Enterococcus faecalis, UniProt A0ACD6TCR9); format: cell-based, E. faecalis TX5274; details: EC50 ratio relative to GBAP; for Fold Change relative to GBAP, loss in potency: parentheses = loss
[2] = biological target: T1, E. faecalis Fsr QS circuit (gelE promoter); details: cited from earlier work; for EC50: read-out: EC50 [95% CI], previously published analog shown for comparison
[3] = system: wild type E. faecalis cells (strain TX4002); assay: Biofilm formation phenotypic assay; format: cell-based; details: exogenous GBAP added to wild type TX4002 cells

In the case of “Ac-GBAP-Des(Q1N2) (SPNIFGQWM; not fully specified; N-acetyl tail; lactone macrocycle) [Peptide 10]”, the “Fold Change relative to GBAP, improvement in potency” value ([1]; no parentheses = improvement) is given as 1.1 fold and the EC50 [2] is given as 1.01 nM.
For GBAP-G8A [Peptide 2], the “Fold Change relative to GBAP, loss in potency” value [1] is listed as “(> 10,000) fold”, the “agonist activity” value [2] is listed as “complete loss of activity” and the EC50 [2] is listed as greater than 10000 nM.
In the case of “GBAP-Des(Q1N2) lactam (SPNIFGQWM; head-to-tail lactam cyclization) [Peptide 11]”, the “Fold Change relative to GBAP, loss in potency” value [1] is given as “(> 10,000) fold”, the “agonist activity” value [2] is given as “completely inactive” and the EC50 [2] is given as greater than 10000 nM.
In the case of “GBAP (SPNIFGQWM; not fully specified; N-terminal QN tail; lactone macrocycle) [Peptide 1, reference compound]”, the “increase in the amount of biofilm formation” value [3] is given as 30–50% and the EC50 [2] is given as 1.15 nM.
For GBAP-f7 [Peptide 4], the EC50 [2] is listed as 4.97 nM.
For GBAP-s3 [Peptide 12], the EC50 [2] is given as 45.1 nM.
